By stoichiometry N is commonly meant a count of units in the complex or per binding partner.

Data set [1] deals with the molecule itself. The data set is described as follows: SEC + other: glycerol gradient sedimentation; Superdex 200 Increase 3.2/300 (Stoke's radius 62.77 Å) and 20%-40% glycerol gradient in LFB1/100 (5.105 S), combined by the Siegel-Monty method; apparent molecular size; monomer to dimer.
Data set [2] concerns the molecule itself. The data set is described as follows: SEC; Superdex 200 Increase 3.2/300, 20 μl/min; TRAIP-wt and CDK1/Cyclin B-phosphorylated TRAIP-wt loaded one at a time; fractions blotted with TRAIP antibodies. For orientation: In gel filtration, larger molecules generally elute earlier.

B1: His6-SUMO-tagged X. laevis TRAIP-wt (enzyme, UniProt Q6NRV0 1-464, looked up)
chain: MPIRAYCTICSDFFDNARDVAAITCGHTFHQECLLQWFHSAPHRTCPQCRIQVSSRQIINKLFFDIGGEEETVLDAESLKNEVDRIKASLLVKEKEKRECQGLVDSLREMLDVRNVTIQSQQKELGDMEMLCSTLKKQIKFLDKQQSETKAAKDEARKLRNKLKTMESIEVLLQSQRSEVEEMIRDMGSGQAAVEQLAIYCVSLKKEYENLKEVRKSSAEMTEKLRKELFSSNHKAQKAELELTKVREELSASQKELHSADKEIMSLKKKVEFLQKTLTTPTASNEAISRLIFESPAPIGLERPKLRPPMMGNDINLDVTFDIDTPEHNTQKSVVAPFKKMKFDNKEHPLSSPTKNPLQESKGLMSWAGGRTGADEDDDLTLPSFIKNSLLHKKPVGSLLGLRQNTGAVRTGFDGLGGRTKFIQPSNLTEIRPLHQKMKRKKVSRPTACTSSLANQPRLEDFLK
notes: TRAIP ubiquitin ligase, Xenopus laevis, wild type; SUMO-TRAIP is said to be 65 kDa; also called His6-SUMO-TRAIP-wt; His-SUMO-TRAIP; source: E. coli Rosetta (DE3) pLysS, pCA528 vector, purified (Ni-NTA; Mono Q for the gel filtration); not shown: His6, N-terminal, kept; SUMO, N-terminal, kept
Consider B1, for which the “stoichiometry N” value in data set [1] came to 2.

B2: phosphorylated His6-SUMO-TRAIP-wt (in vitro phosphorylated with CDK1/Cyclin B) (enzyme, X. laevis, UniProt Q6NRV0 1-464, looked up)
chain: MPIRAYCTICSDFFDNARDVAAITCGHTFHQECLLQWFHSAPHRTCPQCRIQVSSRQIINKLFFDIGGEEETVLDAESLKNEVDRIKASLLVKEKEKRECQGLVDSLREMLDVRNVTIQSQQKELGDMEMLCSTLKKQIKFLDKQQSETKAAKDEARKLRNKLKTMESIEVLLQSQRSEVEEMIRDMGSGQAAVEQLAIYCVSLKKEYENLKEVRKSSAEMTEKLRKELFSSNHKAQKAELELTKVREELSASQKELHSADKEIMSLKKKVEFLQKTLTTPTASNEAISRLIFESPAPIGLERPKLRPPMMGNDINLDVTFDIDTPEHNTQKSVVAPFKKMKFDNKEHPLSSPTKNPLQESKGLMSWAGGRTGADEDDDLTLPSFIKNSLLHKKPVGSLLGLRQNTGAVRTGFDGLGGRTKFIQPSNLTEIRPLHQKMKRKKVSRPTACTSSLANQPRLEDFLK
modifications: phosphorylated in vitro by CDK1/Cyclin B; mutation of T280, S295 and S352 to alanine (TRAIP-3A) abolishes this phosphorylation
notes: TRAIP ubiquitin ligase, Xenopus laevis, wild type, as m1; the sites phosphorylated in vitro were not mapped one by one; T325 is discussed as a possible fourth site; also called phosphorylated TRAIP-wt; phosphorylated TRAIP; source: E. coli Rosetta (DE3) pLysS, purified (Ni-NTA, Mono Q), then phosphorylated in vitro with CDK1/Cyclin B; not shown: His6, N-terminal, kept; SUMO, N-terminal, kept
As to B2, the binding result in data set [2] is given as “binds”.

Values taken from publication PMC12242765, “CDK-driven phosphorylation of TRAIP is essential for mitotic replisome disassembly and MiDAS” (Nucleic Acids Research, 2025).
